Assay results taken from patent US20110268748A1 (UNIVERSITY OF ROCHESTER, published 2011).

What was measured:
[1] = target: T1, VP16-NuIP (HSV VP16 activation domain fused to full-length NuIP) (mouse, UniProt Q8BPQ7 1-1093); assay: mammalian two-hybrid, luciferase reporter, MN9D cells
T1 construct: also called pVP16NuIP
T1 sequence: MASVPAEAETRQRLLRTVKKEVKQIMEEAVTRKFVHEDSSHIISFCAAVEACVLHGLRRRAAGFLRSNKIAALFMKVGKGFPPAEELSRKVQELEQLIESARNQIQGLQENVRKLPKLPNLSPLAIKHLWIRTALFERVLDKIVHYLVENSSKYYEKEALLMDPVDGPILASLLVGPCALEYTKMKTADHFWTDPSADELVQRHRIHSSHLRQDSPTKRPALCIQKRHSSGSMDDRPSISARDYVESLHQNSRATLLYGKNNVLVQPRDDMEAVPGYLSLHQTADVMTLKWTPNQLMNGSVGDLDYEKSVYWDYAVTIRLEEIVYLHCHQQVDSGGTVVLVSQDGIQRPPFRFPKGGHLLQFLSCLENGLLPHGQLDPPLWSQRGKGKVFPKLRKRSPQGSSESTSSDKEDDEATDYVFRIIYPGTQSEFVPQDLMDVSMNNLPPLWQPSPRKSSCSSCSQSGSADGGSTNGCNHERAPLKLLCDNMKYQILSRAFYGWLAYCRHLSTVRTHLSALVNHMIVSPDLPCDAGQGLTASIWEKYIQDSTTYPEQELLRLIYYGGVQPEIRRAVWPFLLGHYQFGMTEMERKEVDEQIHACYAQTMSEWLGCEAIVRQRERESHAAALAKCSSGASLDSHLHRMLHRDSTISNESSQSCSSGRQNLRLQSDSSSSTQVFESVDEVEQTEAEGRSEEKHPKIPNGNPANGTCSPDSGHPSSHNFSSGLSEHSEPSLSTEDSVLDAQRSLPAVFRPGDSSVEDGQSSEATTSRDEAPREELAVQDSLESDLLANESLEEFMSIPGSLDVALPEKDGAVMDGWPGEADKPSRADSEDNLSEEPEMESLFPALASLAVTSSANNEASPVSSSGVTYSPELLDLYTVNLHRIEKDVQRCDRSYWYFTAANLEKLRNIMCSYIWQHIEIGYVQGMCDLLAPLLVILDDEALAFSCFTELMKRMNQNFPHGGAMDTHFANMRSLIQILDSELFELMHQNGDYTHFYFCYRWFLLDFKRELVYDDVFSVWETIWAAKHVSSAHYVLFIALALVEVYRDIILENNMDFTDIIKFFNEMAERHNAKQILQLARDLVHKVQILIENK

[2] = target: T2, pPC86-RXR (Gal4 activation domain fused to full-length human RXRα) (human, UniProt P19793 1-462); assay: yeast two-hybrid, growth on -Leu/-Trp/-His (X-gal staining: White)
T2 construct: also called pPC89RXR
T2 sequence (looked up): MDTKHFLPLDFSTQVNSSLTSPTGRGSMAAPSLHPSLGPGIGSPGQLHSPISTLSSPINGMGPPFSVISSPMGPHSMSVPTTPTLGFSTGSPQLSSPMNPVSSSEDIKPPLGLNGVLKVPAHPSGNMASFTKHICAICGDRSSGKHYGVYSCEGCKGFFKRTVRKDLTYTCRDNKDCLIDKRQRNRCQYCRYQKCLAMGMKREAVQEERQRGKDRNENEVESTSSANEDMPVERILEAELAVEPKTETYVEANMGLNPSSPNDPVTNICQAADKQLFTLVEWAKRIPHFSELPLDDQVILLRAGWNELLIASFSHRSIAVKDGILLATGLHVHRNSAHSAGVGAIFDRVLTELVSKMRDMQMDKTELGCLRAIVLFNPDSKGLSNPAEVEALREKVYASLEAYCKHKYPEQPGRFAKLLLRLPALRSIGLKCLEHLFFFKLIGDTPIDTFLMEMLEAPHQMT

[3] = target: T3, Gal4NLBD589A (Gal4 DNA-binding domain fused to the Nurr1 ligand binding domain with alanine for aspartic acid … (UniProt P04386 1-147)); assay: yeast two-hybrid, empty prey vector control, growth on -Leu/-Trp/-His (X-gal staining: White)
T3 construct: also called pPC97-NLBD589A; pPC97NLBD589A

B1: Gal4NLBDΔ583 (Gal4 DNA-binding domain fused to the Nurr1 ligand binding domain with the AF2 domain deleted) (other)
chain: DPSPPSPPVSLISALVRAHVDSNPAMTSLDYSRFQANPDYQMSGDDTQHIQQFYDLLTGSMEIIRGWAEKIPGFADLPKADQDLLFESAFLELFVLRLAYRSNPVEGKLIFCNGVVLHRLQCVRGFGEWIDSIVEFSSNLQNMNIDISAFSCIAALAMVTERHGLKEPKRVEELQNKIVNCLKDHVTFNNGGLNRPNYLSKLLGKLPELRTLCTQGLQRIFYLKLEDLVP
notes: Used under the same name as yeast bait (pPC97) and in the mammalian two-hybrid assay in MN9D cells; also called Gal4NLDBA583; Gal4NLBDp583
binding result [1]: binds
binding result [2]: no binding

B2: Gal4 activation domain alone (empty pPC86 vector) (other, UniProt P04386 768-881, looked up)
chain: ANFNQSGNIADSSLSFTFTNSSNGPNLITTQTNSQALSQPIASSNVHDNFMNNEITASKIDDGNNSKPLSPGWTDQTAYNAFGITTGMFNTTTMDDVYNYLFDDEDTPPNPKKE
notes: Empty prey vector control in yeast two-hybrid; also called pPC89
binding result [3]: no binding
